Experiments:
[1] = Release test of free diclofenac, felbinac, ketoprofen or naproxen in sodium phosphate buffer (Example 23); type: physicochemical
Protocol: (§1) (set temperature of air conditioner). After confirming that no gel was formed, this solution was dispensed. Immediately after the dissolution, the amount of free diclofenac present in each solution was measured by LC-MS/MS as an initial state (day 0 of storage). Also, the other dispensed solutions were incubated at 37° C. for 1, 3, and 7 days, and then the amount of free diclofenac was measured. […] The MS conditions are as follows. • Ionization mode: ESI-negative • Ion source temperature: 300 degrees • Capillary voltage: -4000 V

[2] = Release test of free diclofenac from conjugates in 20 mM sodium phosphate buffer, 37°C (Example 11); type: physicochemical; conditions: for Release Rate in Release Test at pH 5.3: pH 5.3, 37°C; for Release Rate in Release Test at pH 5.3 / Release Rate in Release Test at pH 7.0: free diclofenac; for Release Rate in Release Test at pH 7.0: pH 7.0, 37°C
Protocol: as §1

[3] = pH 5.3, day 1, free drug (diclofenac, felbinac, ketoprofen or naproxen)
[4] = pH 5.3, day 3, free drug (diclofenac, felbinac, ketoprofen or naproxen)
[5] = pH 5.3, day 7, free drug (diclofenac, felbinac, ketoprofen or naproxen)
[6] = pH 7.0, day 1, free drug (diclofenac, felbinac, ketoprofen or naproxen)
[7] = pH 7.0, day 3, free drug (diclofenac, felbinac, ketoprofen or naproxen)
[8] = pH 7.0, day 7, free drug (diclofenac, felbinac, ketoprofen or naproxen)

Substance	Release Rate in Release Test at pH 5.3 [1, 3] [%]	Release Rate in Release Test at pH 5.3 [1, 4] [%]	Release Rate in Release Test at pH 5.3 [1, 5] [%]	Release Rate in Release Test at pH 7.0 [1, 6] [%]	Release Rate in Release Test at pH 7.0 [1, 7] [%]	Release Rate in Release Test at pH 7.0 [1, 8] [%]	Release Rate in Release Test at pH 5.3 ([2]; Day 1, 0.1% w/w conjugate) [%]	Release Rate in Release Test at pH 5.3 ([2]; Day 3, 0.1% w/w conjugate) [%]	Release Rate in Release Test at pH 5.3 ([2]; Day 7, 0.1% w/w conjugate) [%]	Release Rate in Release Test at pH 7.0 ([2]; Day 1, 0.1% w/w conjugate) [%]	Release Rate in Release Test at pH 7.0 ([2]; Day 3, 0.1% w/w conjugate) [%]	Release Rate in Release Test at pH 7.0 ([2]; Day 7, 0.1% w/w conjugate) [%]	Release behaviour in the release test at pH 7.0 (in words) [2]
Diclofenac-(2-Amino-1-(4-(Hydroxymethyl)Piperidin-1-Yl)Ethan-1-One)-Alginic Acid Derivative [Compound 58]	0.0	0.2	0.3	0.3	1.3	3.1	–	–	–	–	–	–	–
Diclofenac-(2-Amino-1-(4-Hydroxypiperidin-1-Yl)Ethan-1-One)-Alginic Acid Derivative [Compound 63b]	0.1	0.1	0.2	0.7	1.9	2.5	–	–	–	–	–	–	–
Diclofenac-(2-Amino-N-(1-Hydroxypropan-2-Yl)Acetamide)-Alginic Acid Derivative [Compound 80a]	0.2	0.4	0.6	0.8	2.4	5.3	–	–	–	–	–	–	–
Diclofenac-(2-Amino-N-(1-Hydroxypropan-2-Yl)Acetamide)-Alginic Acid Derivative [Compound 80b]	0.2	0.3	0.7	0.7	2.3	5.6	–	–	–	–	–	–	–
Diclofenac-(2-Amino-N-(2-Hydroxyethyl)Acetamide)-Alginic Acid Derivative [Compound 53a]	0.1	0.4	0.8	0.9	3.7	10.0	–	–	–	–	–	–	–
Diclofenac-(2-Amino-N-(2-Hydroxyethyl)Acetamide)-Alginic Acid Derivative [Compound 53c]	0.5	0.9	1.0	0.9	2.5	7.4	–	–	–	–	–	–	–
Diclofenac-(2-Amino-N-(2-Hydroxyethyl)Acetamide)-Alginic Acid Derivative [Compound 53d]	0.1	0.5	0.6	0.7	3.0	9.3	–	–	–	–	–	–	–
Diclofenac-(2-Amino-N-(2-Hydroxypropyl)Acetamide)-Alginic Acid Derivative [Compound 72a]	0.0	0.1	0.2	0.3	1.0	2.2	–	–	–	–	–	–	–
Diclofenac-(2-Amino-N-(2-Hydroxypropyl)Acetamide)-Alginic Acid Derivative [Compound 72b]	0.0	0.1	0.2	0.4	1.5	3.7	–	–	–	–	–	–	–
Diclofenac-(2-Amino-N-(3-Hydroxypropyl)Acetamide)-Alginic Acid Derivative [Compound 76a]	0.1	0.2	0.4	0.5	1.3	3.5	–	–	–	–	–	–	–
Diclofenac-(2-Amino-N-(3-Hydroxypropyl)Acetamide)-Alginic Acid Derivative [Compound 76b]	0.3	0.5	0.6	0.4	1.4	3.6	–	–	–	–	–	–	–
Diclofenac-(2-Amino-N-(6-Hydroxyhexyl)Acetamide)-Alginic Acid Derivative [Compound 68]	0.0	0.2	0.3	0.3	0.9	2.1	–	–	–	–	–	–	–
Diclofenac-(2-Aminoethanol)-Alginic Acid Derivative [Compound 5a]	–	–	–	–	–	–	0.0	0.1	0.2	0.2	2.3	4.1	–
Diclofenac-(2-Aminoethanol)-Alginic Acid Derivative [Compound 5b]	–	–	–	–	–	–	0.0	0.0	0.3	0.1	2.1	5.0	stably released
Diclofenac-(2-Aminoethanol)-Alginic Acid Derivative [Compound 5c]	–	–	–	–	–	–	0.0	0.1	0.4	0.3	2.5	5.5	stably released
Diclofenac-(2-Aminoethanol)-Alginic Acid Derivative [Compound 5d]	–	–	–	–	–	–	0.0	0.1	0.4	0.2	2.4	5.1	stably released
Diclofenac-(2-Aminoethoxyethanol)-Alginic Acid Derivative [Compound 14]	–	–	–	–	–	–	0.0	0.0	0.0	0.0	0.0	0.0	–
Diclofenac-(2-Aminoethoxyethanol)-Alginic Acid Derivative [Compound 14a]	0.1	0.2	0.4	0.6	1.9	4.2	–	–	–	–	–	–	–
Diclofenac-(2-Aminoethoxyethanol)-Alginic Acid Derivative [Compound 14b]	0.1	0.2	0.5	–	–	–	–	–	–	–	–	–	–
Diclofenac-(3-Amino-2,2-Difluoropropan-1-Ol)-Alginic Acid Derivative [Compound 36]	–	–	–	–	–	–	0.0	0.5	1.0	1.2	8.8	12.9	–
Diclofenac-((4-(Aminomethyl)Phenyl)Methanol)-Alginic Acid Derivative [Compound 28]	–	–	–	–	–	–	0.0	0.1	0.3	0.1	1.2	4.0	–
Diclofenac-(N-(Aminoethyl)-2-Hydroxyacetamide)-Alginic Acid Derivative [Compound 42]	–	–	–	–	–	–	0.0	0.5	3.3	1.8	10.2	21.0	stably released
Diclofenac-(N-(Aminoethyl)-2-Hydroxypropanamide)-Alginic Acid Derivative [Compound 47]	–	–	–	–	–	–	0.0	0.1	0.7	0.8	6.1	10.9	stably released
Felbinac-(2-Amino-N-(2-Hydroxyethyl)Acetamide)-Alginic Acid Derivative [Compound 84]	0.2	0.3	0.5	0.9	3.3	7.3	–	–	–	–	–	–	–

Reference: US20230190943A1, “ALGINIC ACID DERIVATIVE BONDED TO NONSTEROIDAL ANTI-INFLAMMATORY COMPOUND” (MOCHIDA PHARMACEUTICAL CO., LTD., priority 2018, published 2023)
